Measurements from patent US20250121078A1, “PEPTIDE DRUG CONJUGATES AND THEIR USES” (priority 2023, published 2025).
Where a SMILES comes first, the peptide text is derived from it. [ ]: non-standard residue; d: D form. The star is where a group is joined. X2 = COc1cc2cc(c1Cl)N(C)C(=O)C[C@H](OC(=O)[C@H](C)N(C)C(=O)CCSSCCC(=O)NCCOCCOCCn1nnc3c1CC[C@H]1[C@@H](CC3)[C@@H]1COC(=O)*)[C@]1(C)O[C@H]1[C@H](C)[C@@H]1C[C@@](O)(NC(=O)O1)[C@H](OC)/C=C/C=C(\C)C2; X1 = COc1cc2cc(c1Cl)N(C)C(=O)C[C@H](OC(=O)[C@H](C)N(C)C(=O)CCSSCCC(=O)*)[C@]1(C)O[C@H]1C(C)[C@@H]1C[C@@](O)(NC(=O)O1)[C@H](OC)/C=C/C=C(\C)C2; d(hArg(Et2)) = CCN=C(NCC)NCCCC[C@@H](N)C(=O)O; dPhe(4-Cl) = N[C@H](Cc1ccc(Cl)cc1)C(=O)O; d2Nal = N[C@H](Cc1ccc2ccccc2c1)C(=O)O; d3Pal = N[C@H](Cc1cccnc1)C(=O)O

Assays:
[1] = tested on: HCC1806 triple negative breast cancer; assay: In vivo anti-tumor activity in triple-negative breast HCC1806 tumor model; set-up: species or system immunodeficient nude mice; settings: 1 mg/kg to 2.5 mg/kg, every other week, once a week, or twice a week
Protocol: In vivo anti-tumor activity of Compound 16 was evaluated in triple-negative breast HCC1806 tumor model. HCC1806 cells were suspended with RPMI 1640 medium (phenol red free) and Matrigel™ in 1:1 ratio, and implanted subcutaneously (1×10^6 cells/flank) into the left flank of the immunodeficient nude mice. The tumor volume in mm^3 was calculated by the formula: Volume=(length×width^2)/2. Tumor-bearing mice were randomized (n=8 per group) when the average tumor volume was approximately at 210 mm^3 on day 10 after inoculation. Compound 16 was dissolved in DMA, cremorphor and 5% dextrose solution (1:2:27, v/v/v). Tumor-bearing mice were intravenously administered once weekly (qw) or bi-weekly (b2w) with multiple doses of vehicle control (5 mL/kg) and DBPR376 (2.5 mg/kg). Tumor size and body weight of each animal were measured twice weekly during the study period.
Compounds 8, 9, 11, 14, 16, 25, 26, and 27 were evaluated following the procedure described above.

[2] = In vivo pharmacokinetic profile, mouse single IV dose; settings: for Vss (I/kg) / clearance / AUC(0-t): Mouse IV, dose 5 mg/kg; for clearance / AUC(0-t): in vivo; for AUC(0-t): read-out: AUC(0-24 hr); for AUC coverage: single intravenous dose
Protocol: Pharmacokinetic properties of compounds of the invention were measured following the procedures described in Liu et al., Bioconjugate Chem. 2017, 28, 7, 1878-1892.

[3] = biological target: T1, LHRHR, also known as GnRHR (Homo sapiens, UniProt P30968); assay: Radioligand binding assay ([125I]-[D-Trp6]-LHRH displacement)
T1 sequence (P30968 1-328): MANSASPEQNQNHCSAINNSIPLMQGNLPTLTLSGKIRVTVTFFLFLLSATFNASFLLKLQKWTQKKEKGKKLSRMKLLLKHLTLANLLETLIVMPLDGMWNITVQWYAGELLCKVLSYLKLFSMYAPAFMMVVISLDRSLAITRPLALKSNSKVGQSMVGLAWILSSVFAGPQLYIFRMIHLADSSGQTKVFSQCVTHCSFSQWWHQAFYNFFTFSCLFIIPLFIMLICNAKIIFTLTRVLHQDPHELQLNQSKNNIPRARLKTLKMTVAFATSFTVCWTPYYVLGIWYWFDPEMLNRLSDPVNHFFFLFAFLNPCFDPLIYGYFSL
Protocol: An amount of 2 μg of a purified membrane with LHRHR, also known as GnRHR, was incubated with 0.18 nM [125I]-[D-Trp6]-LHRH and compounds of interest in the incubation buffer (50 mM HEPES, pH 7.4, 5 mM MgCl2, 1 mM CaCl2, and 0.2% BSA). The reaction mixtures were incubated for 1 h at 25° C. and then were transferred to a 96-well GF/B filter plate (Millipore Corp., Billerica, MA, USA), which were terminated by manifold filtration and washed with a wash buffer (50 mM HEPES, pH 7.4, and 100 mM NaCl) for six times. The radioactivity bound to the filter was measured by a Topcount® system (PerkinElmer Inc., Waltham, MA, USA). IC50 values were determined by the concentration of a compound required to inhibit 50% of the specific binding of [125I]-[D-Trp6]-LHRH and calculated by nonlinear regression (GraphPad Software, San Diego, CA, USA). The design of these drug conjugates is to actively targeting LHRH-receptor at tumor site and facilitate drug conjugate accumulation in situ. Therefore, selective and strong binding of the synthetic peptide ligand with the receptor is important to allow enrichment of these conjugates, followed by release of the drug payload in the tumor microenvironment.
Compounds of the invention have a binding as low as 0.17 nM.

SMILES	inhibition of in vivo tumor growth [1]	Vss (I/kg) [2] [I/kg]	clearance [2] [mL/min/kg]	AUC(0-t) [2] [ng·h/mL]	AUC coverage [2]	IC50 [3] [nM]
COc1cc2cc(c1Cl)N(C)C(=O)C[C@H](OC(=O)[C@H](C)N(C)C(=O)CCSSCCC(=O)NCCOCCOCCn1nnc3c1CC[C@H]1[C@@H](CC3)[C@@H]1COC(=O)NCCCC[C@@H](NC(=O)[C@H](Cc1ccc(O)cc1)NC(=O)[C@H](CO)NC(=O)[C@@H](Cc1cccnc1)NC(=O)[C@@H](Cc1ccc(Cl)cc1)NC(=O)[C@@H](Cc1ccc3ccccc3c1)NC(C)=O)C(=O)N[C@@H](CC(C)C)C(=O)N[C@@H](CCCNC(=N)N)C(=O)N1CCC[C@H]1C(=O)N[C@H](C)C(N)=O)[C@]1(C)O[C@H]1[C@H](C)[C@@H]1C[C@@](O)(NC(=O)O1)[C@H](OC)/C=C/C=C(\C)C2 [Compound 25] (Ac-[d2Nal][dPhe(4-Cl)][d3Pal]SY[dK](X2)LRP[dA]-NH2)	effectively inhibited	–	–	–	–	–
COc1cc2cc(c1Cl)N(C)C(=O)C[C@H](OC(=O)[C@H](C)N(C)C(=O)CCSC(=O)c1ccc(CN(CCOCCOCCn3nnc4c3CC[C@H]3[C@@H](CC4)[C@@H]3COC(=O)NCCCC[C@@H](NC(=O)[C@H](Cc3ccc(O)cc3)NC(=O)[C@H](CO)NC(=O)[C@@H](Cc3cccnc3)NC(=O)[C@@H](Cc3ccc(Cl)cc3)NC(=O)[C@@H](Cc3ccc4ccccc4c3)NC(C)=O)C(=O)N[C@@H](CC(C)C)C(=O)N[C@@H](CCCNC(=N)N)C(=O)N3CCC[C@H]3C(=O)N[C@H](C)C(N)=O)C(=O)C3(c4ccc(Cl)cc4)CCCCC3)cc1)[C@]1(C)O[C@H]1[C@H](C)[C@@H]1C[C@@](O)(NC(=O)O1)[C@H](OC)/C=C/C=C(\C)C2 [Compound 16]	effectively inhibited	0.5	15.5	4860	–	–
CCNC(=NCCCC[C@@H](NC(=O)[C@H](CC(C)C)NC(=O)[C@@H](CCCCNC(=O)OC[C@H]1[C@@H]2CCc3nnn(CCOCCOCCN(Cc4ccc(C(=O)SCCC(=O)N(C)[C@@H](C)C(=O)O[C@H]5CC(=O)N(C)c6cc(cc(OC)c6Cl)C/C(C)=C/C=C/[C@@H](OC)[C@@]6(O)C[C@H](OC(=O)N6)[C@@H](C)[C@@H]6O[C@@]56C)cc4)C(=O)C4(c5ccc(Cl)cc5)CCCCC4)c3CC[C@@H]21)NC(=O)[C@H](Cc1ccc(O)cc1)NC(=O)[C@H](CO)NC(=O)[C@@H](Cc1cccnc1)NC(=O)[C@@H](Cc1ccc(Cl)cc1)NC(=O)[C@@H](Cc1ccc2ccccc2c1)NC(C)=O)C(=O)N1CCC[C@H]1C(=O)N[C@H](C)C(N)=O)NCC [Compound 11]	effectively inhibited	0.1	4	21000	–	–
CCNC(=NCCCC[C@@H](NC(=O)[C@H](CC(C)C)NC(=O)[C@@H](CCCCNC(=O)CCSSCCC(=O)N(C)[C@@H](C)C(=O)O[C@H]1CC(=O)N(C)c2cc(cc(OC)c2Cl)C/C(C)=C/C=C/[C@@H](OC)[C@@]2(O)C[C@H](OC(=O)N2)C(C)[C@@H]2O[C@@]12C)NC(=O)[C@H](Cc1ccc(O)cc1)NC(=O)[C@H](CO)NC(=O)[C@@H](Cc1cccnc1)NC(=O)[C@@H](Cc1ccc(Cl)cc1)NC(=O)[C@@H](Cc1ccc2ccccc2c1)NC(C)=O)C(=O)N1CCC[C@H]1C(=O)N[C@H](C)C(N)=O)NCC (stereo partly shown) [Compound 14] (Ac-[d2Nal][dPhe(4-Cl)][d3Pal]SY[dK](X1)L[d(hArg(Et2))]P[dA]-NH2)	effectively inhibited	0.2	0.9	88300	extensive AUC coverage	1 to 10
COc1cc2cc(c1Cl)N(C)C(=O)C[C@H](OC(=O)[C@H](C)N(C)C(=O)CCSSCCC(=O)NCCCC[C@@H](NC(=O)[C@H](Cc1ccc(O)cc1)NC(=O)[C@H](CO)NC(=O)[C@@H](Cc1cccnc1)NC(=O)[C@@H](Cc1ccc(Cl)cc1)NC(=O)[C@@H](Cc1ccc3ccccc3c1)NC(C)=O)C(=O)N[C@@H](CC(C)C)C(=O)N[C@@H](CCCNC(=N)N)C(=O)N1CCC[C@H]1C(=O)N[C@H](C)C(N)=O)[C@]1(C)O[C@H]1C(C)[C@@H]1C[C@@](O)(NC(=O)O1)[C@H](OC)/C=C/C=C(\C)C2 (stereo partly shown) [Compound 8] (Ac-[d2Nal][dPhe(4-Cl)][d3Pal]SY[dK](X1)LRP[dA]-NH2)	effectively inhibited	0.25	1.6	55100	extensive AUC coverage	0.1 to 1
COc1cc2cc(c1Cl)N(C)C(=O)C[C@H](OC(=O)[C@H](C)N(C)C(=O)CCSC(=O)c1ccc(CN(CCOCCOCCn3nnc4c3CC[C@H]3[C@@H](CC4)[C@@H]3COC(=O)NCCCC[C@@H](NC(=O)[C@H](Cc3ccc(O)cc3)NC(=O)[C@H](CO)NC(=O)[C@@H](Cc3cccnc3)NC(=O)[C@@H](Cc3ccc(Cl)cc3)NC(=O)[C@@H](Cc3ccc4ccccc4c3)NC(C)=O)C(=O)N[C@@H](CC(C)C)C(=O)N[C@H](CCCNC(=N)N)C(=O)N3CCC[C@H]3C(=O)N[C@H](C)C(N)=O)C(=O)C3(c4ccc(Cl)cc4)CCCCC3)cc1)[C@]1(C)O[C@H]1[C@H](C)[C@@H]1C[C@@](O)(NC(=O)O1)[C@H](OC)/C=C/C=C(\C)C2 [Compound 27]	effectively inhibited	0.1	6.4	15900	–	–
CCNC(=NCCCC[C@@H](NC(=O)[C@H](CC(C)C)NC(=O)[C@@H](CCCCNC(=O)OC[C@H]1[C@@H]2CCc3nnn(CCOCCOCCNC(=O)CCSSCCC(=O)N(C)[C@@H](C)C(=O)O[C@H]4CC(=O)N(C)c5cc(cc(OC)c5Cl)C/C(C)=C/C=C/[C@@H](OC)[C@@]5(O)C[C@H](OC(=O)N5)[C@@H](C)[C@@H]5O[C@@]45C)c3CC[C@@H]21)NC(=O)[C@H](Cc1ccc(O)cc1)NC(=O)[C@H](CO)NC(=O)[C@@H](Cc1cccnc1)NC(=O)[C@@H](Cc1ccc(Cl)cc1)NC(=O)[C@@H](Cc1ccc2ccccc2c1)NC(C)=O)C(=O)N1CCC[C@H]1C(=O)N[C@H](C)C(N)=O)NCC [Compound 26] (Ac-[d2Nal][dPhe(4-Cl)][d3Pal]SY[dK](X2)L[d(hArg(Et2))]P[dA]-NH2)	effectively inhibited	–	–	–	–	–
COc1cc2cc(c1Cl)N(C)C(=O)C[C@H](OC(=O)[C@H](C)N(C)C(=O)CCSC(=O)c1ccc(CN(CCOCCOCCn3nnc4c3CC[C@@H]3[C@H](CC4)[C@H]3COC(=O)N(CCCC[C@H](NC(=O)[C@H](CC(C)C)NC(=O)[C@@H](Cc3ccc(NC(N)=O)cc3)NC(=O)[C@H](Cc3ccc(NC(=O)[C@@H]4CC(=O)NC(=O)N4)cc3)NC(=O)[C@H](CO)NC(=O)[C@@H](Cc3cccnc3)NC(=O)[C@@H](Cc3ccc(Cl)cc3)NC(=O)[C@@H](Cc3ccc4ccccc4c3)NC(C)=O)C(=O)N3CCC[C@H]3C(=O)N[C@H](C)C(N)=O)C(C)C)C(=O)C3(c4ccc(Cl)cc4)CCCCC3)cc1)[C@]1(C)O[C@H]1[C@H](C)[C@@H]1C[C@@](O)(NC(=O)O1)[C@H](OC)/C=C/C=C(\C)C2 [Compound 9]	effectively inhibited	0.2	6.7	12500	extensive AUC coverage	–
